{"source": "paper PMC3787073", "about": "(PLoS ONE, 2013)", "molecules": {"B1": {"name": "Recombinant Sc-KU-4 (BPTI-Kunitz family serine protease inhibitor of Steinernema carpocapsae) (natural protein)", "chain": "FPLFEFNCSALKDSGSGSNVTRQFYFDPDWNTCLAFNYNGTGGNTNRFETKEDCELLCVPAGSTCKGPSKTVVQPLKEAFRCDDSVCPSTHKCLMGMVPVCCDKENQEAFNQAVADTCPDGTKADGIFDLYFRAVYAHSCEDLICDENHKCVQVNKHFAKCCSKE", "notes": "not shown: His6, C-terminal, kept"}}, "experiment_in_all_cases": "enzyme inhibition kinetics (Dixon plot)", "key": {"[1]": {"molecular_target": "α-chymotrypsin from bovine pancreas (bovine)"}, "[2]": {"molecular_target": "α-chymotrypsin from bovine pancreas (bovine)", "remark": "listed apart in the source"}, "[3]": {"molecular_target": "elastase from bovine pancreas (bovine, UniProt Q28153 27-266)", "sequence (Q28153 27-266)": "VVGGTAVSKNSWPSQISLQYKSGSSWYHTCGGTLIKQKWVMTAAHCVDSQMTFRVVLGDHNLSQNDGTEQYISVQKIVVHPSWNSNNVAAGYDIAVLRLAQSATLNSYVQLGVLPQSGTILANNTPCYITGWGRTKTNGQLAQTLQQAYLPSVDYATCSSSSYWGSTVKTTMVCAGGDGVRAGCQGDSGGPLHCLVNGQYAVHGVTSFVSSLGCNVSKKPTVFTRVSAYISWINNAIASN", "conditions": "both partners purified"}}, "note": "Like-named read-outs stand apart in the source and are kept apart here.", "data": [{"molecule": "Recombinant Sc-KU-4 (BPTI-Kunitz family serine protease inhibitor of Steinernema carpocapsae) (from UniProt E2IPQ6) (natural protein)", "values": [{"measurement": "Ki", "setting": "[1]", "result": 1.8, "unit": "nM"}, {"measurement": "Ki", "setting": "[2]", "result": 2.6, "unit": "nM"}]}, {"molecule": "B1", "values": [{"measurement": "Ki", "setting": "[3]", "result": 2.6, "unit": "nM"}]}]}
